Where two headings read alike, the source gives them in different places.
Key:
[1] = biological target: Epithelial Cell Adhesion Molecule (EpCAM) (human) (UniProt P16422)
[2] = biological target: Epithelial Cell Adhesion Molecule (EpCAM) (human) (UniProt P16422); remark: listed apart in the source
[3] = biological target: Epithelial Cell Adhesion Molecule (EpCAM) (human) (UniProt P16422); remark: listed apart in the source
[4] = biological target: T1, Epithelial Cell Adhesion Molecule (EpCAM) (human, UniProt P16422 24-314)
T1 sequence (looked up): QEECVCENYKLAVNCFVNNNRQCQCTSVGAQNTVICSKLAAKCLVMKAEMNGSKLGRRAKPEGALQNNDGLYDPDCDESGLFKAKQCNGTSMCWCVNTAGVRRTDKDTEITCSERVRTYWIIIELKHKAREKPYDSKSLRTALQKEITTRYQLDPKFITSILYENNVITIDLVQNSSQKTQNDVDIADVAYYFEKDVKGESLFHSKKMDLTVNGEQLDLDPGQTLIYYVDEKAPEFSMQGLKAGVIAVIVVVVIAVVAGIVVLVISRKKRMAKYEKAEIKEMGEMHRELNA

[5] = biological target: T1, Epithelial Cell Adhesion Molecule …; experiment: cell-based or functional assay
[6] = biological target: T1, Epithelial Cell Adhesion Molecule …; experiment: flow cytometry on HT-29 cells (EpCAM-positive), purified protein at 100 ng/mL
[7] = biological target: T1, Epithelial Cell Adhesion Molecule …; experiment: flow cytometry on MCF-7 cells (EpCAM-positive), purified protein at 100 ng/mL
[8] = biological target: T1, Epithelial Cell Adhesion Molecule …; experiment: flow cytometry on CAL-27 cells (EpCAM-positive), purified protein at 100 ng/mL
[9] = biological target: T1, Epithelial Cell Adhesion Molecule …; experiment: flow cytometry on OVCAR-3 cells (EpCAM-positive), purified protein at 100 ng/mL
[10] = biological target: T1, Epithelial Cell Adhesion Molecule …; remark: listed apart in the source
[11] = biological target: T1, Epithelial Cell Adhesion Molecule …; remark: listed apart in the source
[12] = biological target: T2, Epithelial Cell Adhesion Molecule (EpCAM) (human, UniProt P16422 24-314); experiment: flow cytometry (Lineweaver-Burk), Cal-27 cells
T2 chain: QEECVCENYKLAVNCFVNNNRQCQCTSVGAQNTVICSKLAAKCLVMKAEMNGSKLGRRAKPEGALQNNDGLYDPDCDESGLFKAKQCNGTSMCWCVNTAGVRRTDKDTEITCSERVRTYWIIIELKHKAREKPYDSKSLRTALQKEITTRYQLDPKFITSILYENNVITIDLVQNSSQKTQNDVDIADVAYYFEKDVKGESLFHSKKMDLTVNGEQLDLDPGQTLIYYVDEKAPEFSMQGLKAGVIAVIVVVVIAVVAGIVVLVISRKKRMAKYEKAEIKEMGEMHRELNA

[13] = biological target: T1, Epithelial Cell Adhesion Molecule …; experiment: flow cytometry titration (3.2 to 1000 ng/mL) on CAL-27 cells, Lineweaver-Burk plot
[14] = biological target: T1, Epithelial Cell Adhesion Molecule …; remark: listed apart in the source

VB6-845 VH-N53 / VL-WT (Fab)
MF (median fluorescence, % of WT) [1]: 23 % of WT

VB6-845 VH-WT / VL-CDR2 (E51-H53-Q55) (Fab)
MF (median fluorescence, % of WT) [2]: 70 % of WT

VB6-845 VH-WT / VL-FR2 (H39-S42), second version (Fab)
MF (median fluorescence, % of WT) [2]: 68 % of WT

VB6-845 VH-WT / VL-FR2 (D41-Q42), first version (Fab)
MF (median fluorescence, % of WT) [3]: 84 % of WT

VB6-845 VH-S93 / VL-WT (Fab)
MF (median fluorescence, % of WT) [1]: 35 % of WT

B1: VB6-845-Algo (VH-IIr-N35-Q98 / VL-IIr-KSHI) (Fab)
heavy: EVQLQQSGPGLVQPGGSVRISCAASGYTFTAYGMNWVRQAPGKGLEWMGWINTYTGESTYADSFKGRFEFSLDTHNSSAYLQIQSLREEDTAVYYCARFAIQGDYWGQGTLVTVSSASTKGPSVFPLAPSSKSTSGGTAALGCLVKDYFPEPVTVSWNSGALTSGVHTFPAVLQSSGLYSLSSVVTVPSSSLGTQTYICNVNHKPSNTKVDKKVEPKSC
light: DIQMTQSPSSLSASVGDRVTITCKSTKSLLHSNGITYLYWYQQKPGSAPKLLIYQMSHLASGVPSRFSSSGSGTDFTLTISSLQPEDFATYYCAQNLEIPRTFGQGTKVEIKRTVAAPSVFIFPPSDEQLKSGTASVVCLLNNFYPREAKVQWKVDNALQSGNSQESVTEQDSKDSTYSLSSTLTLSKADYEKHKVYACEVTHQGLSSPVTKSFNRGECTRHRQPRGWEQKYNTVSFNLGEAYEYPTFIQDLRNELAKGTPVCQLPVTLQTIADDKRFVLVDITTTSKKTVKVAIDVTDVYVVGYQDKWDGKDRAVFLDKVPTVATSKLFPGVTNRVTLTFDGSYQKLVNAAKADRKALELGVNKLEFSIEAIHGKTINGQEAAKFFLIVIQMVSEAARFKYIETEVVDRGLYGSFKPNFKVLNLENNWGDISDAIHKSSPQCTTINPALQLISPSNDPWVVNKVSQISPDMGILKFKSSK
MF (median fluorescence, % of WT) [4]: 94 % of WT
IC50 (nM), MTS cytotoxicity assay, CAL-27 (EpCAM-positive) [5]: 18 nM
IC50 (nM), MTS cytotoxicity assay, HT-29 (EpCAM-positive) [5]: 15 nM
IC50 (nM), MTS cytotoxicity assay, MCF-7 (EpCAM-positive) [5]: 2.3 nM
IC50 (nM), MTS cytotoxicity assay, OVCAR-3 (EpCAM-positive) [5]: 2.9 nM
FI (fold increase) at 100 ng/mL [6]: 41.6 fold
FI (fold increase) at 100 ng/mL [7]: 27.7 fold
FI (fold increase) at 100 ng/mL [8]: 14 fold
FI (fold increase) at 100 ng/mL [9]: 40.9 fold

B2: VB6-845 VH-WT / VL-IIr-KSHI (Fab)
heavy: EVQLVQSGPGLVQPGGSVRISCAASGYTFTNYGMNWVKQAPGKGLEWMGWINTYTGESTYADSFKGRFTFSLDTSASAAYLQINSLRAEDTAVYYCARFAIKGDYWGQGTLLTVSSASTKGPSVFPLAPSSKSTSGGTAALGCLVKDYFPEPVTVSWNSGALTSGVHTFPAVLQSSGLYSLSSVVTVPSSSLGTQTYICNVNHKPSNTKVDKKVEPKSC
light: DIQMTQSPSSLSASVGDRVTITCKSTKSLLHSNGITYLYWYQQKPGSAPKLLIYQMSHLASGVPSRFSSSGSGTDFTLTISSLQPEDFATYYCAQNLEIPRTFGQGTKVEIKRTVAAPSVFIFPPSDEQLKSGTASVVCLLNNFYPREAKVQWKVDNALQSGNSQESVTEQDSKDSTYSLSSTLTLSKADYEKHKVYACEVTHQGLSSPVTKSFNRGECTRHRQPRGWEQKYNTVSFNLGEAYEYPTFIQDLRNELAKGTPVCQLPVTLQTIADDKRFVLVDITTTSKKTVKVAIDVTDVYVVGYQDKWDGKDRAVFLDKVPTVATSKLFPGVTNRVTLTFDGSYQKLVNAAKADRKALELGVNKLEFSIEAIHGKTINGQEAAKFFLIVIQMVSEAARFKYIETEVVDRGLYGSFKPNFKVLNLENNWGDISDAIHKSSPQCTTINPALQLISPSNDPWVVNKVSQISPDMGILKFKSSK
MF (median fluorescence, % of WT) [10]: 89 % of WT

B3: VB6-845 VH-IIr-N35-Q98 / VL-WT (Fab)
heavy: EVQLQQSGPGLVQPGGSVRISCAASGYTFTAYGMNWVRQAPGKGLEWMGWINTYTGESTYADSFKGRFEFSLDTHNSSAYLQIQSLREEDTAVYYCARFAIQGDYWGQGTLVTVSSASTKGPSVFPLAPSSKSTSGGTAALGCLVKDYFPEPVTVSWNSGALTSGVHTFPAVLQSSGLYSLSSVVTVPSSSLGTQTYICNVNHKPSNTKVDKKVEPKSC
light: DIQMTQSPSSLSASVGDRVTITCRSTKSLLHSNGITYLYWYQQKPGKAPKLLIYQMSNLASGVPSRFSSSGSGTDFTLTISSLQPEDFATYYCAQNLEIPRTFGQGTKVELKRTVAAPSVFIFPPSDEQLKSGTASVVCLLNNFYPREAKVQWKVDNALQSGNSQESVTEQDSKDSTYSLSSTLTLSKADYEKHKVYACEVTHQGLSSPVTKSFNRGECTRHRQPRGWEQKYNTVSFNLGEAYEYPTFIQDLRNELAKGTPVCQLPVTLQTIADDKRFVLVDITTTSKKTVKVAIDVTDVYVVGYQDKWDGKDRAVFLDKVPTVATSKLFPGVTNRVTLTFDGSYQKLVNAAKADRKALELGVNKLEFSIEAIHGKTINGQEAAKFFLIVIQMVSEAARFKYIETEVVDRGLYGSFKPNFKVLNLENNWGDISDAIHKSSPQCTTINPALQLISPSNDPWVVNKVSQISPDMGILKFKSSK
MF (median fluorescence, % of WT) [11]: 100 % of WT

B4: VB5-845-WT (non-deimmunized VB5-845 Fab fragment) (Fab, V domains shown)
VH: EVQLVQSGPGLVQPGGSVRISCAASGYTFTNYGMNWVKQAPGKGLEWMGWINTYTGESTYADSFKGRFTFSLDTSASAAYLQINSLRAEDTAVYYCARFAIKGDYWGQGTLLTVSS
VL: DIQMTQSPSSLSASVGDRVTITCRSTKSLLHSNGITYLYWYQQKPGKAPKLLIYQMSNLASGVPSRFSSSGSGTDFTLTISSLQPEDFATYYCAQNLEIPRTFGQGTKVELKR
Kd [12]: 1.46 nM
Kd [13]: 1.56 nM

B5: VB5-845-Algo Fab (Fab, V domains shown)
VH: EVQLQQSGPGLVQPGGSVRISCAASGYTFTAYGMNWVRQAPGKGLEWMGWINTYTGESTYADSFKGRFEFSLDTHNSSAYLQIQSLREEDTAVYYCARFAIQGDYWGQGTLVTVSS
VL: DIQMTQSPSSLSASVGDRVTITCKSTKSLLHSNGITYLYWYQQKPGSAPKLLIYQMSHLASGVPSRFSSSGSGTDFTLTISSLQPEDFATYYCAQNLEIPRTFGQGTKVEIKR
Kd [13]: 1.31 nM

B6: VB6-845-(VH-IIr-CDR1/VL-Ir-Q50) (Fab)
chain 1: EVQLVQSGPGLVQPGGSVRISCAASGYTFTNYGMNWVKQAPGKGLEWMGWINTYTGESTYADSFKGRFTFSLDTSASAAYLQINSLRAEDTAVYYCARFAIKGDYWGQGTLLTVSSASTKGPSVFPLAPSSKSTSGGTAALGCLVKDYFPEPVTVSWNSGALTSGVHTFPAVLQSSGLYSLSSVVTVPSSSLGTQTYICNVNHKPSNTKVDKKVEPKSCTRHRQPRGWEQLYNTVSFNLGEAYEYPTFIQDLRNELAKGTPVCQLPVTLQTIADDKRFVLVDITTTSKKTVKVAIDVTDVYVVGYQDKWDGKDRAVFLDKVPTVATSKLFPGVTNRVTLTFDGSYQKLVNAAKADRKALELGVNKLEFSIEAIHGKTINGQEAAKFFLIVIQMVSEAARFKYIETEVVDRGLYGSFKPNFKVLNLENNWGDISDAIHKSSPQCTTINPALQLISPSNDPWVVNKVSQISPDMGILKFKSSK
chain 2: HHHHHHDIQMTQSPSSLSASVGDRVTITCRSTKSLLHSNGITYLYWYQQKPGKAPKLLIYQMSNLASGVPSRFSSSGSGTDFTLTISSLQPEDFATYYCAQNLEIPRTFGQGTKVELKRTVAAPSVFIFPPSDEQLKSGTASVVCLLNNFYPREAKVQWKVDNALQSGNSQESVTEQDSKDSTYSLSSTLTLSKADYEKHKVYACEVTHQGLSSPVTKSFNRGEC
MF (median fluorescence, % of WT) [14]: 78 % of WT
